Data reported in publication PMC10888690.

Molecular target: SmCAMTA2, split-YFP fusion for BiFC (Solanum melongena (eggplant))

- LUC/REN ratio of the SmCBF2 promoter-LUC reporter in N. benthamiana leaves when SmERF1-62-SK and SmCAMTA2-62-SK were co-present: 2 fold
Substance: SmERF1, construct for BiFC (natural protein)
